The values below come from patent CN101386648A (MICROORGANISM EPIDEMIC INST OF, dated 2009).

Substitutions are numbered along the chain they refer to.

Experiment [1] concerns the target A型肉毒神经毒素 (botulinum neurotoxin type A) (Clostridium botulinum, UniProt P0DPI0 2-1296). Briefly: ELISA. (An ELISA detects its analyte on a solid surface through an enzyme-linked reagent.)
For experiment [2], the target named is T1, E型肉毒神经毒素 (botulinum neurotoxin type E) (Clostridium botulinum, UniProt Q00496 2-1251).
T1 sequence: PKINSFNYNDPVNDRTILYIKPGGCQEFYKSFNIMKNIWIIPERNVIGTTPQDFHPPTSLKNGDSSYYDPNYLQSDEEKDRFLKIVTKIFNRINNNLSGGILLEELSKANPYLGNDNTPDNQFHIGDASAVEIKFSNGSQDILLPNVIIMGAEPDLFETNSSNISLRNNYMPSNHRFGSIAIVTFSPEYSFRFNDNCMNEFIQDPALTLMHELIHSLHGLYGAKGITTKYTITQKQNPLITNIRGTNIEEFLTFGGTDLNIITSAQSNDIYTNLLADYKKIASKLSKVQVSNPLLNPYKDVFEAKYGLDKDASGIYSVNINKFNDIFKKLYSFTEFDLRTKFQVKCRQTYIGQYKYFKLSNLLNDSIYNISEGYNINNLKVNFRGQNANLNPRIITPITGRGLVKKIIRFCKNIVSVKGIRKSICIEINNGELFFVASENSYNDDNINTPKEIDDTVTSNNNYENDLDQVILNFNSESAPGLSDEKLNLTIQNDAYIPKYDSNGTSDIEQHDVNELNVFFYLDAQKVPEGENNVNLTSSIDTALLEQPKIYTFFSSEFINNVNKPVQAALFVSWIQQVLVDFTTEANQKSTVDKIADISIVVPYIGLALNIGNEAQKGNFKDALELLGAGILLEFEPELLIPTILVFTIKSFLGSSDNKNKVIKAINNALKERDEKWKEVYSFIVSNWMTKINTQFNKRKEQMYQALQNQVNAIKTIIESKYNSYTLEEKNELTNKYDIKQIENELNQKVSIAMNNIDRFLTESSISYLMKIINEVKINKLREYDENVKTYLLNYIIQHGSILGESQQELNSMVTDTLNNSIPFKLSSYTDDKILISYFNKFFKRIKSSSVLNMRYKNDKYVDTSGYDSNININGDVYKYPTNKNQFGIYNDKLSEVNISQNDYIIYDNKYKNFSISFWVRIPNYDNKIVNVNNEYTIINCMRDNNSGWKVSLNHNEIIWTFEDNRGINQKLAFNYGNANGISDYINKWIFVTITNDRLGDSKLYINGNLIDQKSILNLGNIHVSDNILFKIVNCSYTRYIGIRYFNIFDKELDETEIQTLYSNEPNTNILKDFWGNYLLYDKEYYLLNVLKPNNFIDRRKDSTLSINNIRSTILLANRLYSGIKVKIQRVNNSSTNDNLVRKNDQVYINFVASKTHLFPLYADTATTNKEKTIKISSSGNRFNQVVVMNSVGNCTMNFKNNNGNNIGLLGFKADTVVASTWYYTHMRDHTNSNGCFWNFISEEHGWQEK
Briefly: ELISA.

Experiment [3] addresses T2, F型肉毒神经毒素 (botulinum neurotoxin type F) (Clostridium botulinum, UniProt P30996 1-1274).
T2 sequence: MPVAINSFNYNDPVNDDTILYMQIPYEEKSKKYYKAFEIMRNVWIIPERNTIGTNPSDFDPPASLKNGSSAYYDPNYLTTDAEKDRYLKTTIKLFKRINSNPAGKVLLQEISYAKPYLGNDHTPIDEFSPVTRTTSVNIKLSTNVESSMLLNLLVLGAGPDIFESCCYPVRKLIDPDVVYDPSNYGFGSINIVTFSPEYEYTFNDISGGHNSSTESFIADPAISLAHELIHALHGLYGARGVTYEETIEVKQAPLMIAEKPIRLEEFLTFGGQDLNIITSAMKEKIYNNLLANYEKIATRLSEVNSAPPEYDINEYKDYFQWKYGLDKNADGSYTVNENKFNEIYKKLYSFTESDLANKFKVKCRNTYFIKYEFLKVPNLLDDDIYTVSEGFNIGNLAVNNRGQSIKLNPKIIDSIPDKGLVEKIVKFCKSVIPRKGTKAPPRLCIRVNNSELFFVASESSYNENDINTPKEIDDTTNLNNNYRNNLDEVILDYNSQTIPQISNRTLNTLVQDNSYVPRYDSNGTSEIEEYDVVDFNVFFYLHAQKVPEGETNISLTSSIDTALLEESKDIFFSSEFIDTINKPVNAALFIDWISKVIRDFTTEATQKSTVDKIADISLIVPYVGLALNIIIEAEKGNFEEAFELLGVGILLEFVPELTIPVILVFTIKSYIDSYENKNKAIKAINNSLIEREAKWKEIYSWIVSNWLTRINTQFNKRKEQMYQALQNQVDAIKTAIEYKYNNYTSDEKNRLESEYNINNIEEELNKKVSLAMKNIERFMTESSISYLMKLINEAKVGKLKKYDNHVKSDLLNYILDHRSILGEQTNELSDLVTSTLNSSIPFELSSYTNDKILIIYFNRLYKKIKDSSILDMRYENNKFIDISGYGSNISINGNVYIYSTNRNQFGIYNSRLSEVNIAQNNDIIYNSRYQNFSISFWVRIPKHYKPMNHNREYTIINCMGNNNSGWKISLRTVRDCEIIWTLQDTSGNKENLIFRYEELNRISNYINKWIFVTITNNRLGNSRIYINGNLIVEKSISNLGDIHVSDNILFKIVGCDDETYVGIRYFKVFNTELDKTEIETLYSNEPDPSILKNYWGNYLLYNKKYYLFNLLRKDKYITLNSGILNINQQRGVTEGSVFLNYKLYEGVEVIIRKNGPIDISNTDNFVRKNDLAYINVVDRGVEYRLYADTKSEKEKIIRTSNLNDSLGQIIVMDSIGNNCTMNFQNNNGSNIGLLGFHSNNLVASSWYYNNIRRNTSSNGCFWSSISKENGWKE
Briefly: ELISA.

In experiment [4] the target is T3, B型肉毒神经毒素 (botulinum neurotoxin type B) (Clostridium botulinum, UniProt P10844 2-1291).
T3 sequence: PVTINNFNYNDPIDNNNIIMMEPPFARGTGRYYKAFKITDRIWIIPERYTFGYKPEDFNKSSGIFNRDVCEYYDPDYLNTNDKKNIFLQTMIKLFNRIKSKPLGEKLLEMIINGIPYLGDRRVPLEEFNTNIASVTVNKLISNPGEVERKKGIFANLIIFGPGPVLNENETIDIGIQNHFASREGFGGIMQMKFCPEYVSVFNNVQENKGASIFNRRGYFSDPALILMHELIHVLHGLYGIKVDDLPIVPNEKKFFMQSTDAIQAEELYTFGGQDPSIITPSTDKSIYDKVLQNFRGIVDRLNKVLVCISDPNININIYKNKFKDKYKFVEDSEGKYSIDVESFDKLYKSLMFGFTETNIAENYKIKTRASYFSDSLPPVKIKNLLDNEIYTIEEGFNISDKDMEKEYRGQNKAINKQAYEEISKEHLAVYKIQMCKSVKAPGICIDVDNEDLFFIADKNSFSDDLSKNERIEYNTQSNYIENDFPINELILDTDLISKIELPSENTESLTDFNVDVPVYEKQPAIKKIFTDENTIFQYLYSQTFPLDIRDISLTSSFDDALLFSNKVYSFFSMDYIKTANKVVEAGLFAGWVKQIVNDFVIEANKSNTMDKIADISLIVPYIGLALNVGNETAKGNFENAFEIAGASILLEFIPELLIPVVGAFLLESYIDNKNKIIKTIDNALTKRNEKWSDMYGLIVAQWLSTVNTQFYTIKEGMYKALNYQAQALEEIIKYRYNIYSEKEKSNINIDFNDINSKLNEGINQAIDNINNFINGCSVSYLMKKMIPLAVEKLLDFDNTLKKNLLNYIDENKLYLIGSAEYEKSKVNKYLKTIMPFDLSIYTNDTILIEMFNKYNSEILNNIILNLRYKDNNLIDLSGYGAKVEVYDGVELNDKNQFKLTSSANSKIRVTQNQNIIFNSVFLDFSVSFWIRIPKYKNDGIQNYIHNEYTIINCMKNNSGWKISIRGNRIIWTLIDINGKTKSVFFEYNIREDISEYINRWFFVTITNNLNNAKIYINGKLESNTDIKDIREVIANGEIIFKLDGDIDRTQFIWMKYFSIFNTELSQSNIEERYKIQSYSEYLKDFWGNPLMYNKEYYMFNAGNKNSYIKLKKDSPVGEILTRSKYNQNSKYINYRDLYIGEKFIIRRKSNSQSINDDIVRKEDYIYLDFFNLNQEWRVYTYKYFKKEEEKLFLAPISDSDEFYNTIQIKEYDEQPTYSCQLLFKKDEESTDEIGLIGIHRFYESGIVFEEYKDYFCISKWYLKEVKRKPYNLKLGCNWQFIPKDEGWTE
Briefly: SPR (Biacore 3000, CM5 chip), […]. On the technique in general: SPR reads the build-up and loss of mass on a sensor chip optically.

Chain of A型肉毒神经毒素 (botulinum neurotoxin type A) (P0DPI0 2-1296 limits assumed): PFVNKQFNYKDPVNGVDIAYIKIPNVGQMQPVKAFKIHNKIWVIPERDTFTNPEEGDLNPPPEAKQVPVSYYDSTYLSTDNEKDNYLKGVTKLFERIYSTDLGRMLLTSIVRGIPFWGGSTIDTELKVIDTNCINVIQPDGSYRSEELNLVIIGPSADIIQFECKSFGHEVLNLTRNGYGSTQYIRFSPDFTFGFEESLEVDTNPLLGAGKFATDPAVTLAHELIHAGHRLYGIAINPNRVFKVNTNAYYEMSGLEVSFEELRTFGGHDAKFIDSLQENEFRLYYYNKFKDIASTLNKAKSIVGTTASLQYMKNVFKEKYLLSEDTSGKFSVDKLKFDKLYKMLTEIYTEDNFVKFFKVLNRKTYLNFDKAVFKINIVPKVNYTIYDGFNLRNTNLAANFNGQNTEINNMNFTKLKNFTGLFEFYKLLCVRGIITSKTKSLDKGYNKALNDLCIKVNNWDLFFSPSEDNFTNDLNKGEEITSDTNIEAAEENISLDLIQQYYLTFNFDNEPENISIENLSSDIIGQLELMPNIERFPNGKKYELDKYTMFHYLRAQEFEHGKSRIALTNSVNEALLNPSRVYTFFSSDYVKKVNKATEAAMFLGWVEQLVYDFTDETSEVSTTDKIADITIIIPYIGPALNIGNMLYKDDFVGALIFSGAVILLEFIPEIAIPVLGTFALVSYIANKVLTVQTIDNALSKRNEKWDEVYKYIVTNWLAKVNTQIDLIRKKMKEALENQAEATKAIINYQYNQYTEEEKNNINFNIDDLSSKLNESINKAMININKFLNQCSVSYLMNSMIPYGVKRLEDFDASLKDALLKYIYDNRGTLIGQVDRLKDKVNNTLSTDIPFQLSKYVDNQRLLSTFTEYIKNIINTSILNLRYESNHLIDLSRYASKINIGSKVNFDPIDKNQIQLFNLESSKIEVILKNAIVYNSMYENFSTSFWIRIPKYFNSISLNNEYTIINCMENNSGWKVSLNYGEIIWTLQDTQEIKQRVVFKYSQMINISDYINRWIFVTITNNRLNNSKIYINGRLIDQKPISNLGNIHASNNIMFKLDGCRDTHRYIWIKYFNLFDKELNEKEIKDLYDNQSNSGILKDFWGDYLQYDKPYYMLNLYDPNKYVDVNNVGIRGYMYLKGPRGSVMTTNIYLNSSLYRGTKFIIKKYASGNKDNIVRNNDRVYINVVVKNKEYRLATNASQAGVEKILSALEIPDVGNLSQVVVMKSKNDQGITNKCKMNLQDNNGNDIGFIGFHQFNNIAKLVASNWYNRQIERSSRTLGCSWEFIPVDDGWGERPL

B1: 人源化抗B型肉毒神经毒素中和性抗体HuBNbP8 (recombinant MBP-scFv fusion protein expressed from pMAL-HuFv) (scFv)
scFv: AQVQLVQSGAEVVKPGASVKLSCKASGYTFTSYYIYWVKQRPGQGLGWIGEIYPSNGGTNFNEKFKTKATLTVDKSASTAYMQLSSLTSEDSTVYYCARMGNYGGSYFDYWGQGTTLTVSSGGGGSGGGGSGGGGSDIVLTQSPATLSVTPGESVSLSCGASQSISNNLHWYQQKSHESPRLLIKFASQSISGIPSKFSGSGSGTDFSLSINSLETEDFGVFFCQQSDTWPYTFGGGTKLEIKRAAAE
Turning to B1, the binding result in experiment [1], in experiment [2] and in experiment [3] was “no binding” throughout. In addition, the Kd in experiment [4] came to 1.34 nM.

B2: 鼠源抗B型肉毒神经毒素中和性抗体MuBNbP8 (recombinant MBP-scFv fusion protein expressed from pMAL-MuFv) (scFv)
scFv: B1 scFv with Q4K, V6Q, V12L, A77S, E153D
As to B2, the binding result in experiment [1], in experiment [2] and in experiment [3] was “no binding” each time.

The term Kd denotes the free concentration of one partner at which half of the binding sites on the other are occupied at equilibrium, for simple one-to-one binding.
